pKd: −log10 of the molar value. Entries after “also recorded” stand apart in the source; their conditions may differ. Like-named read-outs stand apart in the source and are kept apart here.
Key:
[1] = molecular target: S519(VIII)-AAV9 (enhanced AAV9), mosaic AAV9 vector with insulin-mimetic peptide S519 inserted in capsid VR-VIII (adeno-associated virus serotype 9); test: cell-based or functional assay
HEK293T cells = assay type: cell-based, human; settings: FLuc-encoding eAAV9; luciferase activity 24 hpt
[2] = Blood glucose after intramuscular injection in fasted mice; assay type: in vivo, mouse; settings: 0.5 U/kg intramuscular
Protocol: Because of the physiological role of insulin in modulating blood glucose levels, we asked whether eAAV9, with its insulin-mimetic insertion, would exert a measurable effect on the blood glucose concentration of mice. Mice were fasted as described above, and blood glucose was measured by microsampling immediately before injection of vectors to obtain a baseline value. Mice were injected in the gastrocnemius muscle with 10^9 vg of WT AAV9, eAAV9, or, as a positive control, human insulin at 0.5 U/kg, a typical therapeutic dose for a patient with diabetes mellitus type 2 (FIG. 4D). Blood glucose was then measured at 45 min, 2 h, and 4 h post injection of vectors or insulin.
Blood glucose measurement. At 4 hours before glucose measurement, mice were relocated to a cage with iso-PADS bedding (Envigo) with access to water but no food source. Mice were then anesthetized with isoflurane and their left hind limb was shaved. Blood glucose was measured with a Contour Next glucometer (Bayer) by puncturing the saphenous vein with a lancet and sampling 1 ul of venous blood by capillary action. After the first glucose measurement, mice were injected in the medial aspect of the right gastrocnemius muscle with either 10^9 vector genomes or 0.5 U/kg human insulin (Tocris). Subsequent blood glucose measurements were performed in the same way as the first. […]

[3] = molecular target: human insulin receptor, endogenous on HEK293T / Control 293T cells (human) (UniProt P06213); test: cell-based or functional assay
IR [4] = molecular target: T1, IR (Homo sapiens, UniProt P06213); settings: cited from earlier work
IR [5] = molecular target: T1, IR; settings: cited from earlier work; remark: listed apart in the source

For “human IR ectodomain fused to an Fc tag (IR-Fc) (from UniProt P06213 28-956) (Fc fusion)”, which inhibition of eAAV9 transduction of HEK293T cells (luciferase activity 24 h after transduction), IC50 [1] is on record?
The inhibition of eAAV9 transduction of HEK293T cells (luciferase activity 24 h after transduction), IC50 was 0.6 nM.

For human insulin, which “IC50 of human insulin for inhibition of eAAV9 transduction” value (HEK293T cells) is on record?
The value was 5.2 µg/mL.

And the blood glucose ([2]; 2 and 4 hours)?
The blood glucose was “rebound effect”.

And the blood glucose ([2]; 45 min)?
The blood glucose was “sharp and statistically significant decrease”.

With “human insulin (Tocris) (from UniProt P01308 90-110) (ligand)” as the substance, how does the inhibition of eAAV9 transduction of HEK293T cells by human insulin (luciferase activity), IC50 [3] read?
The inhibition of eAAV9 transduction of HEK293T cells by human insulin (luciferase activity), IC50 was 5.2 µg/mL.

With “insulin-mimetic peptide GSLDESFYDWFERQLGKK (SEQ ID NO:8) [S371]” as the substance, how does the pKd (IR [4]; read-out: affinity of binding to IR) read?
Its pKd is about 7.40.

And the “activity on IR” value (IR [5])?
The value was “activates the receptor in the absence of insulin”.

With “insulin-mimetic peptide, 36 amino acid linear peptide SLEEEWAQVECEVYGRGCPSGSLDESFYDWFERQLG (SEQ ID NO:7) (SLEEEWAQVECEVYGRGCPSGSLDESFYDWFERQLG) [S519]” as the substance, how does the pKd (IR [4]; human IR, read-out: Kd for IR) read?
The pKd was 10.70.

What about the “activity on IR” value (IR [5]) of the same substance?
The value was “behaves as an agonist; also recorded: agonist activity on IR”.
